Measured values: PMC9848366, “Crystal structure of vaccinia virus G3/L5 sub-complex reveals a novel fold with extended inter-molecule interactions conserved among orthopoxviruses” (Emerging Microbes & Infections, 2023)

Biological target: T1, VACV G3-ectodomain, tag-free (G3-Ecto) (vaccinia virus (VACV), UniProt P68458 22-111)
T1 sequence: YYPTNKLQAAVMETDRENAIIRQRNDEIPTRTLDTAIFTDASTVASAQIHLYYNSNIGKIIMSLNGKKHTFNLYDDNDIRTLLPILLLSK
Test: crystal structure
Settings: both partners purified

B1: VACV L5-ectodomain, tag-free (L5-Ecto) (domain or fragment)
chain: NMFFMPKRKIPDPIDRLRRANLACEDDKLMIYGLPWMTTQTSALSINSKPIVYKDCAKLLRSINGSQPVSLNDVLRR
- binding result: binds
